{"source": "patent US7393670B2", "about": "“Tyrosyl-tRNA synthetase variants” (Japan Science and Technology Agency, priority 2001, dated 2008)", "assay_type_in_all_cases": "biochemical", "key": {"[1]": {"experiment": "Aminoacylation reaction, simplified Lloyd's method, inorganic phosphate detected with Biomol green", "parameters": "key: ***: the reaction could be detected strongly at 25 nM; **: strongly at 250 nM; *: weakly at 250 nM; the activity is high in the order of *** > ** > * > —", "conditions": "Table 3; 3-iodotyrosine 1 mM; 37° C. for 4 min", "protocol": "(§1) In the first method, Lloyd's method (Nucleic Acids Research, 23:2886-2892, 1995) where inorganic phosphate produced by pyrophosphatase-drived hydrolysis of pyrophosphate which was one of the reaction products of the aminoacylation reactions was quantified was simplified, and the inorganic phosphate was detected using Biomol green (Funakoshi) to carry out the measurement of the aminoacylation reaction.\n(§2) Amino acid concentrations were 200 μM and 1 mM for tyrosine and 3-iodotyrosine, respectively.\n(§3) The method where the aminoacylation reaction is measured by quantifying inorganic phosphate produced by pyrophosphatase-drived hydrolysis of pyrophosphate which is one of reaction products of the aminoacylation has been described by Lloyd et al. (Nucleic Acids Research, 23:2886-2892, 1995). In one method of the invention, this method was simplified and the aminoacylation reaction was measured by the detection of inorganic phosphate using Biomol green (Funakoshi). Each enzyme obtained was incubated with 0.05 ml of the buffer B containing 1 mM ATP (Seikagaku Corporation), 30 μM purified crude tyrosyl-tRNA, and 100 μM tyrosine or 0.5 mM 3-iodotyrosine at 37° C. for one hour. To stop the reaction, 0.1 ml of Bio mol green was added. Absorbance of its supernatant was measured at 630 nm."}, "[2]": {"experiment": "Aminoacylation activity by Lloyd's method (release of pyrophosphates)", "protocol": "In the second method, Lloyd's method (Nucleic Acids Research, 23:2886-2892, 1995) was carried out without alteration.\nIn the second method, the activity was assayed by Lloyd's method (Nucleic Acids Research, 23:2886-2892, 1995). Each enzyme obtained was incubated with 0.4 ml of the buffer B containing 1 mM ATP (Seikagaku Corporation), 100 μM purified crude tyrosyl-tRNA, 200 μM tyrosine or 3-iodotyrosine at 37° C. for 6 min. The aminoacylation activity was represented as concentrations of released phosphate per min."}, "[3]": {"experiment": "Aminoacylation reaction, simplified Lloyd's method, inorganic phosphate detected with Biomol green", "parameters": "key: ***: the reaction could be detected strongly at 25 nM; **: strongly at 250 nM; *: weakly at 250 nM; the activity is high in the order of *** > ** > * > —", "conditions": "Table 3; tyrosine 200 μM; 37° C. for 4 min", "protocol": "as §1, §2\nas §3, with “Each enzyme obtained was incubated with 0.05 ml of the buffer B containing 1 mM ATP (Seikagaku Corporation), 30 μM purified crude tyrosyl-tRNA, and 100 μM tyrosine or 0.5 mM 3-iodotyrosine at 37° C. for one hour.” left out"}}, "data": [{"molecule": "VC: E. coli TyrRS double variant: position 37 Valine, position 195 Cysteine (protein, UniProt P0AGJ9 2-424, looked up, variant Y37V Q195C) Tyrosine--tRNA ligase: ASSNLIKQLQERGLVAQVTDEEALAERLAQGPIALVCGFDPTADSLHLGHLVPLLCLKRFQQAGHKPVALVGGATGLIGDPSFKAAERKLNTEETVQEWVDKIRKQVAPFLDFDCGENSAIAANNYDWFGNMNVLTFLRDIGKHFSVNQMINKEAVKQRLNREDQGISFTEFSYNLLQGYDFACLNKQYGVVLCIGGSDQWGNITSGIDLTRRLHQNQVFGLTVPLITKADGTKFGKTEGGAVWLDPKKTSPYKFYQFWINTADADVYRFLKFFTFMSIEEINALEEEDKNSGKAPRAQYVLAEQVTRLVHGEEGLQAAKRITECLFSGSLSALSEADFEQLAQDGVPMVEMEKGADLMQALVDSELQPSRGQARKTIASNAITINGEKQSDPEYFFKEEDRLFGRFTLLRRGKKNYCLICWK", "values": [{"measurement": "Aminoacylation activity, 3-iodotyrosine", "setting": "[1]", "result": "**"}, {"measurement": "relative tyrosine analogue to tyrosine ratio", "setting": "[2]; 3-iodotyrosine versus tyrosine, from Table 4", "result": "more than 10"}, {"measurement": "Initial velocity of release of pyrophosphates, 3-iodotyrosine", "setting": "[2]; at 37° C., 200 μM 3-iodotyrosine", "result": 9.5, "unit": "nM PPi/min/nM enzyme"}, {"measurement": "Initial velocity of release of pyrophosphates, Tyrosine", "setting": "[2]; at 37° C., 200 μM tyrosine", "result": 0.9, "unit": "nM PPi/min/nM enzyme"}, {"measurement": "Aminoacylation activity, Tyrosine", "setting": "[3]", "result": "*"}]}]}
